We go through five molecules from patent US20210301011A1, “COMPOSITION FOR PROPHYLAXIS OR TREATMENT OF IL-8 RELATED DISEASES” (CHUGAI SEIYAKU KABUSHIKI KAISHA, priority 2016, published 2021).

The conditions of data set [1]: commercially available antibodies, known values; cited from earlier work.
For data set [2], the system named is pulmonary function (FEV1). The following applies: clinical trials for COPD patients; worsened in the placebo group; cited from earlier work.
The subject of data set [3] is neutrophil migration. The following applies: clinical trials against cystic fibrosis; cited from earlier work.
Data set [4] concerns the target T1, human FcγRIIIa (Homo sapiens, UniProt P08637).
T1 construct: the soluble forms of FcγRIa and FcγRIIIa in human and cynomolgus monkey; His tag; made in house
As to the kind of experiment: Binding to soluble FcγR (BIACORE T200). Conditions: 20° C., HBS-EP+. The protocol:
(§1) Soluble FcγRIa and FcγRIIIa in both human and cynomolgus monkey were produced in the form of His-tagged molecules by methods known to those of ordinary skill in the art. […] Next, soluble FcγRIa or FcγRIIIa was injected with a running buffer (used as a reference solution), and was made to interact with the antibodies captured onto the sensor chip. HBS-EP+(GE Healthcare) was used as the running buffer, and HBS-EP+ was also used to dilute the soluble FcγRIa or FcγRIIIa. […] All measurements were carried out at 20° C.

Data set [5] addresses T2, human FcγRIa (Homo sapiens, UniProt P12314).
T2 construct: the soluble forms of FcγRIa and FcγRIIIa in human and cynomolgus monkey; His tag; made in house
As to the kind of experiment: Binding to soluble FcγR (BIACORE T200). The following applies: 20° C., HBS-EP+. The protocol: as §1
For orientation: SPR reads the build-up and loss of mass on a sensor chip optically.

The subject of data set [6] is cynomolgus monkey FcγRIa. As to the kind of experiment: Binding to soluble FcγR (BIACORE T200). The following applies: 20° C., HBS-EP+. The protocol: as §1
Data set [7] addresses T3, cynomolgus monkey FcγRIIIa (Macaca fascicularis, UniProt Q8SPW2).
T3 construct: the soluble forms of FcγRIa and FcγRIIIa in human and cynomolgus monkey; His tag; made in house
Description: Binding to soluble FcγR (BIACORE T200). Conditions: 20° C., HBS-EP+. The protocol: as §1

T2 sequence (P12314 16-292 limits assumed): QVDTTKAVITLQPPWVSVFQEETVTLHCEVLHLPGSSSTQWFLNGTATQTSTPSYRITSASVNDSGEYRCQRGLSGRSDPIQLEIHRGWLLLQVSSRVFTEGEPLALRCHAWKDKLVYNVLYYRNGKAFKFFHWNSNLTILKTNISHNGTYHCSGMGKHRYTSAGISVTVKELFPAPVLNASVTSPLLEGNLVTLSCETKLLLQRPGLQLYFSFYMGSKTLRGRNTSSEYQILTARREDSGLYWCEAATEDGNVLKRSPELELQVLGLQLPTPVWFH
T3 sequence (Q8SPW2 17-208 limits assumed): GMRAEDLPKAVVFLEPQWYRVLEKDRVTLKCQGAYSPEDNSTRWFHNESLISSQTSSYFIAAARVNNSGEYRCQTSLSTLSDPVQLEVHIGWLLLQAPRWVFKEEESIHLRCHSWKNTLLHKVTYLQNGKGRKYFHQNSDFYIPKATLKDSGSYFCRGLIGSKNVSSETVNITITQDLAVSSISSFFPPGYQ
T1 sequence (P08637 17-208 limits assumed): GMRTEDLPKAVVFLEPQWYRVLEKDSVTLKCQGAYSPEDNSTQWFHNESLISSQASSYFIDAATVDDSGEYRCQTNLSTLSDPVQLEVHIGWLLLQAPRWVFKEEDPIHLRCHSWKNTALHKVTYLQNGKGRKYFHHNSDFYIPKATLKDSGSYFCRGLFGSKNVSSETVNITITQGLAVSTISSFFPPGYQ

Regarding “Zenapax: commercially available antibody”, the “frequency of ADA development in humans” value in data set [1] is given as 14%.

As to `CC[C@@H](Nc1c(Nc2cccc(C(=O)N(C)C)c2O)c(=O)c1=O)c1ccc(C)o1` [MK7123], the “pulmonary function (FEV1)” value in data set [2] was “pulmonary function (FEV1) was improved in the active drug group”.

Turning to `O=C(Nc1ccc(Cl)c(S(=O)(=O)N2CCNCC2)c1O)Nc1cccc(F)c1Cl` [Elubrixin], in data set [3], the topical neutrophil migration entry was “Topical neutrophil migration was observed to be suppressed”.

As to “Campath: commercially available antibody”, the “frequency of ADA development in humans” value in data set [1] is 45%.

B1: H1009/L395-F1886m: variable region of H1009/L395 with Fc variant F1886m (antibody)
heavy: QVQLVESGGGLVQPGGSLRLSCAASGFTFSDYYLSWVRQAPGKGLEWVGLIRNKDNYHTPEYSASVKGRFTISRDDSKNSLYLTMSDLKTEDTAVYYCARENHRYDVELAYWGQGTLVTVSSASTKGPSVFPLAPSSKSTSGGTAALGCLVKDYFPEPVTVSWNSGALTSGVHTFPAVLQSSGLYSLSSVVTVPSSSLGTQTYICNVNHKPSNTKVDKKVEPKSCDKTHTCPPCPAPELLGGPSVFLFPPKPKDTLMISRTPEVTCVVVDVSHEDPEVKFNWYVDGVEVHNAKTKPREEQYNSTYRVVSVLTVLHQDWLNGKEYKCKVSNKALPAPIEKTISKAKGQPREPQVYTLPPSREEMTKNQVSLTCLVKGFYPSDIAVEWESNGQPENNYKTTPPVLDSDGSFFLYSKLTVDKSRWQQGNVFSCSVLHEALHAHTTRKELSLSP
light: DIQMTQSPSSLSASVGDRVTITCRASEIIYSYLAWYQQKPGKAPKLLIYKAKTHADGVPSRFSGSGSGTDFTFTISSLQPEDIATYYCKHHFGFPRTFGQGTKVEIKRTVAAPSVFIFPPSDEQLKSGTASVVCLLNNFYPREAKVQWKVDNALQSGNSQESVTEQDSKDSTYSLSSTLTLSKADYEKHKVYACEVTHQGLSSPVTKSFNRGEC
As to B1, the “binding to soluble human FcγRIIIa” value in data set [4] was “bind to all FcγRs”. For the same molecule, in data set [5], the “binding to soluble human FcγRIa” value is “bind to all FcγRs”. The “binding to soluble cynomolgus monkey FcγRIa” value in data set [6] is “bind to all FcγRs”. For the same molecule, the “binding to soluble cynomolgus monkey FcγRIIIa” value in data set [7] is on record as “bind to all FcγRs”.
